Assay results published in US6780971B2, “Compositions for inhibiting the aggregation pathway of α-synuclein” (Panacea Pharmaceuticals, Inc., priority 2000, dated 2004).
Each block holds one molecule with its values, some of them ahead of it.

Columns and labels:
[1] = target: T1, A53T α-synuclein (Homo sapiens, UniProt P37840, A53T); experiment: Tyrosine fluorescence assay of metal binding to A53T α-synuclein
T1 construct: His-6 (cleaved yes); made in house; host or cells: bacteria (IPTG-induced; Pro-Ex His 6 vector)
Source text: We also examined how the A53T mutation in human α-synuclein affected binding of iron and magnesium. […] Previous studies have shown that A53T mutation changes the conformation of α-synuclein by increasing its helical content (Polymeropoulos et al., Science, 276:2045-7(1997)). These conformational changes might also reduce binding of magnesium to α-synuclein.

[2] = target: T2, α-synuclein ΔC1-113 (Homo sapiens, UniProt P37840); experiment: Tyrosine fluorescence assay of iron binding to C-terminal deletion construct
T2 construct: made in house
Description: (§1) Because iron binds to other proteins that form aggregates and iron is known to accumulate in Parkinson's disease, iron might bind directly to α-synuclein. To confirm this hypothesis, the interaction of iron with α-synuclein was tested using tyrosine fluorescence as an indicator of iron binding. […] Fluorescence of tyrosine has been used to monitor binding of metals to β-amyloid [Garzon-Rodriguez W. et al., Bioorg. Med. Chem. Let., 9:2243-2248 (1999), which is hereby incorporated by reference]. A similar approach was taken to analyze binding of iron to α-synuclein. Tyrosine has a fluorescence emission spectrum that has a peak emission of 310 nm when excited at 280 nm, respectively (FIG. 2A). It was observed that binding of iron reduced the fluorescence of the tyrosines in α-synuclein. […] The Hill coefficient was 1.0 (R^2=1.0, P<0.0001), indicating one binding site for iron with no cooperativity (FIGS. 2A & B). α-Synuclein was also tested for binding to other metals, including CuCl2, ZnCl2 and MgCl2. Because the C-terminus of α-synuclein has a region with 7 glutamates and 4 aspartates, which together could chelate iron, we created a deletion construct lacking the last 27 amino acids on α-synuclein and analyzed binding of this construct.

[3] = test system: BE-M17 cells over-expressing α-synuclein; experiment: Iron-mediated toxicity in BE-M17 cell lines, MTT assay; type: cell-based; details: for reduction of LD50 by α-synuclein over-expression: 48 hrs
Description: To determine if the conditions that produce α-synuclein aggregation also produce toxicity, the vulnerability of each cell line to iron and/or hydrogen peroxide-mediated toxicity was tested. Each cell line (untransfected, wild type, A53T and A30P a-synuclein) was treated with varying doses of FeCl2, H2O2 or FeCl2+H2O2 and the amount of toxicity was determined by MTT assay. […] Over-expression of A30P or wild type α-synuclein constructs reduced the LD50 values by ˜50%, although the amount of toxicity seen in A30P-expressing cells in response to low levels of iron was generally greater than toxicity seen with wildtype α-synuclein (FIG. 1A). To confirm that over-expression of α-synuclein increased the vulnerability of the neuroblastoma cells to iron, iron-induced toxicity was tested using a LDH assay (FIG. 1B). The LDH assay confirmed that over-expression of the α-synuclein constructs increases iron-induced toxicity (FIG. 1B).

[4] = target: T3, α-synuclein (Homo sapiens, UniProt P37840); experiment: Tyrosine fluorescence assay of metal binding to α-synuclein; details: wildtype α-synuclein
T3 construct: His-6 (cleaved yes); made in house; host or cells: bacteria (IPTG-induced; Pro-Ex His 6 vector)
Description: as §1
To monitor the binding profiles of Fe(II) and Mg(II) to α-synuclein in vitro we used changes of tyrosine fluorescence. Tyrosine fluorescence is used as an indicator of changes in protein conformation or binding of metals. Excitation of tyrosine at 280 nm elicits fluorescence that peaks at 310 nm for monomeric tyrosine, and at 350-400 nm for tyrosinate or dimeric tyrosine. The fluorescence spectrum of α-synuclein yielded fluorescence peaks at 310 and 400 nm. The peak at 400 nm cannot be explained by the presence of dimeric tyrosine, due to dimerization of α-synuclein, because dimerization of α-synuclein decreases the fluorescence at 400 nm, and tends to eliminate the peak at 400 nm.

[5] = test system: BE-M17 neuroblastoma cells; experiment: Iron-induced α-synuclein aggregation in BE-M17 cell lines (fractionation, immunoblot); type: cell-based, human; details: for formation of large α-synuclein aggregates migrating in the stacking gel: cells over-expressing A30P or wild type α-synuclein, 48 hrs, 10 mM FeCl2 and/or 5-500 μM dopamine
Description: Immunoblotting: Cells were harvested with SDS lysis solution (2% SDS, 10 mM Tris, pH 7.4, 2 mM β-glycerol phosphate, 1 μM AEBSF). The amount of protein was determined using the BCA assay (Pierce), […] per lane was run on 14% SDS polyacrylamide gels and transferred to nitrocellulose (200 mAmp, 12 hrs). The nitrocellulose was then incubated 1 hr in 5% milk/PBS, washed, incubated overnight in 1° antibody, washed, then incubated 3 hrs in peroxidase coupled 2° antibody and developed with chemiluminescent reagent (NEN).
Cell fractionation: For cell fractionation the cells were harvested in buffer containing 20 mM Tris, pH 7.4, 2 mM EDTA, 0.25 M sucrose, and 20 μg/mL protease inhibitor cocktail (Sigma). The cell lysate was sonicated and centrifuged at 100,000×g at 4° C. for 1 hr.
To test whether A53T and A30P mutations in α-synuclein increase the tendency of α-synuclein to aggregate in neurons, α-synuclein aggregation was determined in human BE-M17 neuroblastoma cells that were stably transfected with wild type, A53T or A30P α-synuclein. Each cell line was treated for 48 hours with freshly prepared FeCl2 (1 or 10 mM), then harvested, homogenized and fractionated into membrane and cytoplasmic components. The membrane (5 μg/lane) and cytoplasmic (20 μg/lane) components were immunoblotted with monoclonal anti-α-synuclein antibody.
To determine the effect of increasing the duration of exposure to iron on aggregation of α-synuclein at lower doses of iron, BE-M17 cells which are over-expressing A53T or wildtype α-synuclein were exposed to FeCl2 for 4 days. Under these conditions, doses as low as 0.3 μM FeCl2 produced detectable aggregation of α-synuclein in cells expressing A53T α-synuclein.
Neurol. 57:793-796 (2000)]. If so, adding free radical generators, such as hydrogen peroxide or dopamine, along with the iron might increase the amount of α-synuclein aggregation. To further determine that oxidation enhanced iron-induced aggregation of α-synuclein, BE-M17 cells over-expressing A30P or wildtype α-synuclein were treated for 48 hrs with 10 mM FeCl2 plus varying concentrations of dopamine (0.5, 50, and 500 μM).

[6] = target: T4, C-terminal (approx. amino acids 113-140) of α-synuclein (Homo sapiens, UniProt P37840); experiment: Phage display selection for binding to C-terminal portion of α-synuclein; details: for binding to the C-terminal portion of α-synuclein: phage display
T4 construct: The peptides were selected using the α-synuclein 121-131 and 61-87 peptides as the bait
Source text: (§2) Such peptides can be found, for instance, by using phage display to select for those phage expressing a peptide on their surface that binds to α-synuclein, and determining what the peptide is. The inhibitory effect of that peptide, or any peptide for that matter, can also be tested to determine its usefulness as an agent for treating a Lewy body disease or synucleinopathy by using assays such as those disclosed herein or as disclosed in U.S. Pat. No. 6,184,351, which is incorporated herein by reference. Such peptides have been selected for their ability to bind to the C-terminal (approx. amino acids 113-140), and the NAC portion (approx. amino acids 61-87) of α-synuclein, because this region is thought to be involved with the aggregation process. Several peptides that bind to the C-terminal portion are as follows (all peptides are given in […] order): (1) WRQTRKD (SEQ ID NO: 1); (2) HYAKNPI (SEQ ID NO: 2); (3) ATINKSL (SEQ ID NO: 3); (4) RRRGMAI (SEQ ID NO: 4); (5) THRLPSR (SEQ ID NO: 5); and (6) TKHGPRK (SEQ ID NO: 6). Several peptides that bind to the NAC portion are: (1) SLKRLPK (SEQ ID NO: 7); (2) RLRGRNQ (SEQ ID NO: 8); (3) WPFHHHR (SEQ ID NO: 9); (4) HLYHHKT (SEQ ID NO: 10); (5) THIHHPS (SEQ ID NO: 11); and (6) MMMMMRL (SEQ ID NO: 12). […] Most preferred is the peptide SLKRLPK (SEQ ID NO: 7).
(§3) Phage display: Incubating a library of phage that is all identical except for a sequence of 7 amino acids that are presented on the coat and randomly differ from phage to phage. Phage which express a sequence that specifically binds to α-synuclein are then isolated, cloned, and the DNA sequenced to determined the amino acid sequence. The 7 amino acid peptide is then synthesized and tested directly.
(§4) Phage display (phage display kit was from New England Biolabs (Beverly, Mass.)) was used to specifically select for peptides that can inhibit iron binding. […] The peptides were selected using the α-synuclein 121-131 and 61-87 peptides as the bait. One such peptide has the sequence SLKRLPK (SEQ ID NO: 7).

[7] = target: T5, NAC portion (approx. amino acids 61-87) of α-synuclein (Homo sapiens, UniProt P37840); experiment: Phage display selection for binding to NAC portion of α-synuclein; details: for binding to the NAC portion of α-synuclein: phage display; for relative binding properties: NAC portion binders
T5 construct: The peptides were selected using the α-synuclein 121-131 and 61-87 peptides as the bait
Source text: as §2, §3, §4

[8] = target: T3, α-synuclein; experiment: Phage ELISA binding to α-synuclein absorbed to plastic well
Description: Bound phage was detected by adding peroxidase coupled anti-phage antibody, incubating 1 hr, washing 5 times and detecting signal using the peroxidase substrate ABTS. Bound phage produces a dark green signal that is measured as optical density with a spectrophotometer. Using these conditions, the phage containing the SLKRLPK (SEQ ID NO: 7) peptide gave OD's of 0.882, 0.844, and 0.480 at dilutions of 1:10, 1:100, and 1:1000, respectively.

- binding to the NAC portion of α-synuclein [7]: bind
Molecule: HLYHHKT (listed as Homo sapiens)

- binding to the C-terminal portion of α-synuclein [6]: bind
Molecule: HYAKNPI (listed as Homo sapiens)

- relative binding properties [7]: stronger binding properties
- binding to the NAC portion of α-synuclein [7]: bind
Molecule: MMMMMRL (listed as Homo sapiens)

- binding to the NAC portion of α-synuclein [7]: bind
Molecule: RLRGRNQ (listed as Homo sapiens)

- binding to the C-terminal portion of α-synuclein [6]: bind
Molecule: RRRGMAI (listed as Homo sapiens)

- relative binding properties [7]: stronger binding properties
- binding to the NAC portion of α-synuclein [7]: bind
- OD of bound phage ([8]; phage dilution 1:10): 0.882
- OD of bound phage ([8]; phage dilution 1:100): 0.844
- OD of bound phage ([8]; phage dilution 1:1000): 0.480
- binding of phage to α-synuclein by ELISA ([8]; phage expressing the sequence): particularly strong binding
Molecule: SLKRLPK (listed as Homo sapiens)

- relative binding properties [7]: stronger binding properties
- binding to the NAC portion of α-synuclein [7]: bind
Molecule: THIHHPS (listed as Homo sapiens)

- binding to the C-terminal portion of α-synuclein [6]: bind
Molecule: TKHGPRK (listed as Homo sapiens)

Continued, molecule first:

Molecule: [Cl][Fe][Cl] [FeCl2]
- effect of A53T mutation on binding to α-synuclein [1]: did not change the apparent affinity
- IC50 ([2]; construct lacking the last 27 amino acids): 726 µM
- reduction in iron binding versus wildtype ([2]; ΔC1-113 versus wildtype α-synuclein): > 4 fold
- increase in vulnerability to induced toxicity in cells over-expressing α-synuclein [3]: ≤ 4 fold
- reduction of LD50 by α-synuclein over-expression ([3]; A30P or wild type α-synuclein over-expressing cells versus untransfected): ~50%
- reduction of LD50 by α-synuclein over-expression ([3]; A53T α-synuclein over-expressing cells versus untransfected): over 75%
- Hill coefficient of iron binding curve [4]: 1.0
- IC50 ([4]; excitation 280 nm, sigmoidal fit, read-out: IC50 of quenching of α-synuclein tyrosine fluorescence (iron binding)): 173 µM
- α-synuclein aggregate formation ([5]; A53T-expressing cell line, 1 or 10 mM, 48 hours, membrane fraction): induced dose-dependent formation of heterogeneous high molecular weight α-synuclein aggregates
- lowest dose producing detectable aggregation of α-synuclein ([5]; cells expressing A53T α-synuclein, 4 days): 0.3 µM
- formation of large α-synuclein aggregates migrating in the stacking gel [5]: did not induce any aggregation
- α-synuclein aggregate formation ([5]; untransfected, wildtype and A30P cell lines, 48 hr): did not induce α-synuclein aggregates

Molecule: NCCc1ccc(O)c(O)c1 [dopamine]
- formation of large α-synuclein aggregates migrating in the stacking gel [5]: did not induce formation of large α-synuclein aggregates

Molecule: ATINKSL (listed as Homo sapiens)
- binding to the C-terminal portion of α-synuclein [6]: bind

Molecule: THRLPSR (listed as Homo sapiens)
- relative binding properties ([6]; C-terminal portion binder): stronger binding properties
- binding to the C-terminal portion of α-synuclein [6]: bind

Molecule: WPFHHHR (listed as Homo sapiens)
- binding to the NAC portion of α-synuclein [7]: bind

Molecule: WRQTRKD (listed as Homo sapiens)
- binding to the C-terminal portion of α-synuclein [6]: bind
